Our source for the IC50 values is US20120253023A1.

The term IC50 denotes the concentration at which inhibition is half-maximal. A high value points to lower potency.

The experiment concerns the target T1, amylin receptor (rat), P32214.
T1 chain 1: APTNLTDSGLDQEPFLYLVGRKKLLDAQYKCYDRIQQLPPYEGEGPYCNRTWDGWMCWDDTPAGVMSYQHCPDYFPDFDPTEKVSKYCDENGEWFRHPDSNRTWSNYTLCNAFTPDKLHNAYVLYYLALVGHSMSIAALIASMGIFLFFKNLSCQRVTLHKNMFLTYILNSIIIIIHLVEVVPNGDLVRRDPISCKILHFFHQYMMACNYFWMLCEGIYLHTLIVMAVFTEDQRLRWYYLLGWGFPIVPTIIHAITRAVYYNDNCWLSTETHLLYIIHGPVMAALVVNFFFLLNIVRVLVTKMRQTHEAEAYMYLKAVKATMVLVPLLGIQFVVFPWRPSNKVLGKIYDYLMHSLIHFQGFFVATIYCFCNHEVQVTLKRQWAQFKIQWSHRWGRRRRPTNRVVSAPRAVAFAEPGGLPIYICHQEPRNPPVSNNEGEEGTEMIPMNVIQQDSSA
T1 chain 2: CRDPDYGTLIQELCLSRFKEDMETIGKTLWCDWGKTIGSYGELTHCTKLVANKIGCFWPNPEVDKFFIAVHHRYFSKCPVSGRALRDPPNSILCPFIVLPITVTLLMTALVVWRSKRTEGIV

For DFMGWMDFGKRKCNTATCATQRLANELVRLQTYPRTNVGSNTY (modifications not checked) [DF(P-CH2SO3)… …], the IC50 worked out at 83 pM. This lies in the picomolar range.
